Measurements taken from PMC8115922 (Science Advances, 2021).

T1: SAMD1-WH(27-105) (Homo sapiens, UniProt Q6SPF0 27-105)
T1 sequence: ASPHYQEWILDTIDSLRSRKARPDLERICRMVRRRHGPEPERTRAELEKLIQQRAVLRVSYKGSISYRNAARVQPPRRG

B1: WT SAMD1-SAM (construct of the solution experiments not stated) (domain or fragment, human, UniProt Q6SPF0 462-530, looked up)
chain: WTVMDVVEYFTEAGFPEQATAFQEQEIDGKSLLLMQRTDVLTGLSIRLGPALKIYEHHIKVLQQGHFED
B2: 13-bp CpG DNA (dsDNA)
DNA 1: ACCTGCGCACCAT
DNA 2: ATGGTGCGCAGGT

Assays:
[1] = target: the molecule itself; test: SEC + native MS
[2] = target: T1, SAMD1-WH(27-105); test: X-ray crystallography

Binder | stoichiometry N [1] | binding result [2]
B1 | 5 | –
B2 | – | binds
